According to patent US20220267436A1:
pEC50: −log10 of the molar value.

Key:
human LAG-3 (human) [1] = target: human LAG-3 (human) (UniProt P18627); experiment: flow cytometry, CHO-K1 cells expressing human LAG-3; FIG. 1
human LAG-3 (human) [2] = target: human LAG-3 (human) (UniProt P18627); experiment: flow cytometry, CHO-K1 cells expressing human LAG-3; FIG. 2
human CD47 (human) [3] = target: human CD47 (human) (UniProt Q08722); experiment: flow cytometry, CHO-K1 cells expressing human CD47; FIG. 3
human CD47 (human) [4] = target: human CD47 (human) (UniProt Q08722); experiment: flow cytometry, CHO-K1 cells expressing human CD47; FIG. 4

Sequence of human LAG-3 (human) (P18627 23-525): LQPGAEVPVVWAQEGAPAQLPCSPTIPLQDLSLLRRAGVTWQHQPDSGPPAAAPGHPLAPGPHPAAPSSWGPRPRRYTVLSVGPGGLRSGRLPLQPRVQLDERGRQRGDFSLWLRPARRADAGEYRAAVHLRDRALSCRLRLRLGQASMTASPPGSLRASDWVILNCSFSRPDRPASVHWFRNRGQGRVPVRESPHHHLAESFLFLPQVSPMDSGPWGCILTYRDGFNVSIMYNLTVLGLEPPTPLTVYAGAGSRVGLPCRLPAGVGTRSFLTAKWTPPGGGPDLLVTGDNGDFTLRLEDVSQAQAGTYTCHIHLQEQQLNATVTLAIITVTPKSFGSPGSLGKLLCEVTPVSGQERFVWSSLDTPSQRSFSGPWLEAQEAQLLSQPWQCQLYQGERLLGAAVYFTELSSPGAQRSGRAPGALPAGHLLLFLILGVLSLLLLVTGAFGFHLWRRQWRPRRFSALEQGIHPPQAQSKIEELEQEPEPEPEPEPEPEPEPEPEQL
Sequence of human CD47 (human) (Q08722 19-323): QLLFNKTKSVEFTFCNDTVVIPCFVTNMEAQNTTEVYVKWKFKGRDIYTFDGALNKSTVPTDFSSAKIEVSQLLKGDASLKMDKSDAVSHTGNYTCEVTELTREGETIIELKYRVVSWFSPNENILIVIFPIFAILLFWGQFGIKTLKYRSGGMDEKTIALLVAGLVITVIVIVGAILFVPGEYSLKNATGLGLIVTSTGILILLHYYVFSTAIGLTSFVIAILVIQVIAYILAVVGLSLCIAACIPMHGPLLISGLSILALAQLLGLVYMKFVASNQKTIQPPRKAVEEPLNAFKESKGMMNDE

pEC50 (human LAG-3 (human) [1]): 8.61
pEC50 (human LAG-3 (human) [2]): 8.61
pEC50 (human CD47 (human) [3]): 7.84
pEC50 (human CD47 (human) [4]): 7.84
Substance: Human IgG
